{"source": "patent US20220017583A1", "biological_target": "amyloid β (1-28) (UniProt P05067)", "sequence (P05067 672-699 limits assumed)": "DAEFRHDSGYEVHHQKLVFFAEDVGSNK", "assay": "trapping on beads in buffer, eluate by MALDI-TOF MS; ratio of detection limits", "data": [{"substance": "6E10 F(ab′)-PEG24 beads (Fab)", "values": [{"measurement": "fold sensitivity against the IgG-protein G beads of each kind", "result": 5, "unit": "times"}]}]}
